The target in one series is T1, murine MDP (Mus musculus, UniProt P31428).
T1 construct: The amplified 1.3 kb murine MDP cDNA was digested with KpnI and XbaI, and inserted into the same sites of the pcDNA3 expression vector; expressed in transfected cells; host or cells: COS-1 cells, pcDNA3 expression vector
T1 sequence (P31428 17-384): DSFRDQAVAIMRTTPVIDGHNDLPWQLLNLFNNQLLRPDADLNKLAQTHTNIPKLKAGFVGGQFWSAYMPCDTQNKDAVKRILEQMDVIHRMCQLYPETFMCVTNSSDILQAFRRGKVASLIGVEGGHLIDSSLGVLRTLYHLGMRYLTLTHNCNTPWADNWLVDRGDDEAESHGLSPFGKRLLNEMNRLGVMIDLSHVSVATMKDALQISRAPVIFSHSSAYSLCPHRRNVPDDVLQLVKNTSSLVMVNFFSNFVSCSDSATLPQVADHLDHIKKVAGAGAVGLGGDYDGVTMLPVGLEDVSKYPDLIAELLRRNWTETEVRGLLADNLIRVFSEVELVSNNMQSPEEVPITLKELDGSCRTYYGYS
Briefly: phage binding to COS-1 cells transfected with MDP. The procedure: The COS-1 cell line, which is known to have low or no detectable level of MDP activity, has been used extensively to study MDP structure and function (Keynan et al., supra, 1996; Keynan et al., Biochem, J. 326:47-51 (1997)). COS-1 cells were trasfected with murine MDP and used to assay binding to SEQ ID NOS: 1 and 2 as described below.
For transfection into COS-1 cells, a murine MDP expression vector was prepared as follows. Total mouse lung RNA was isolated using Qiagen RNA purification columns (Qiagen; Santa Clarita, Calif.) and used as a template for first strand cDNA synthesis with reverse transcriptase and a mixture of random hexamers and poly-dT oligonucleotides (GIBCO/BRL; Grand Island, N.Y.). Mouse MDP cDNA (Pasqualini et al., J. Cell Biol. 130:1189-1196 (1995)) was amplified from the cDNA pool by PCR using the oligonucleotide pair: […] (SEQ ID NO: 446), which contains a KpnI adaptor, and […] (SEQ ID NO: 447), which contains an XbaI adaptor, using Taq polymerase from GIBCO/BRL. The amplified 1.3 kb murine MDP cDNA was digested with KpnI and XbaI, and inserted into the same sites of the pcDNA3 expression vector (Invitrogen; Carlsbad, Calif.) using DNA restriction enzymes and T4 DNA ligase from New England Biolabs (Beverly, Mass.). Successful cloning of the murine MDP cDNA was confirmed by DNA sequencing. Transfection of the COS-1 cells was performed with the Superfect Reagent from Qiagen as recommended by the manufacturer.
Phage binding to COS-1 cells transfected with MDP was determined as follows. Briefly, 10^7 COS-1 cells were transfected with 10 μg of either the MDP expression vector or the vector alone. After 48 hours, cells were scraped gently from the dish, washed once, and subjected to the phage binding assay or membrane dipeptidase activity assay described above. For the phage binding assay, 5×10^6 cells and 10^10 transducing units (TU) of phage input were used. For measurement of membrane dipeptidase activity, 10^6 cells were lysed in 100 μl of PBS/octylglycoside without protease inhibitors. A 10 μl aliquot of the extract was used to measure MDP activity.

The next series has as its system lung primary cells. As to the kind of experiment: phage binding assay on lung primary cells. Set-up: species or system mice. The procedure: Phage binding to primary cells was performed as follows. Briefly, Balb/c mice (Harlan Sprague Dawley) were anesthetized with 0.017 ml/g of Avertin as described in Gardner et al., Lab. […] Under deep anesthesia, mice were perfused through the heart with 10 ml Dulbecco's modified Eagle's medium (DMEM; Irvine Scientific; Santa Ana, Calif.). The lungs, kidneys and brain were then collected, minced, placed in 2 ml of DMEM containing 0.5% BSA (Intergen; Purchase, N.Y.) and 0.5 μg/ml collagenase V (SIGMA) and incubated at 37° C. for 25 minutes. Following collagenase treatment, the tissue was forced through a […] pore cell strainer (Becton Dickinson; Franklin Lake, N.J.). The filtered cells were washed once with 10 ml DMEM supplemented with 10% serum.
For the binding reaction, 10^9 transducing units (TU) of phage were incubated with 5×10^6 cells in 1 ml DMEM supplemented with 10% serum. The binding was performed at 4° C. for 2 hours with gentle agitation. After the binding reaction, the cells were washed four times with 1 ml of DMEM supplemented with 10% serum at room temperature for 5 to 10 minutes each time. The cells were centrifuged, and the cell pellet resuspended in 100 μl of DMEM and transferred to a new tube. […] The bacteria were then diluted in 10 ml of LB culture media supplemented with 0.2 μg/ml tetracycline, and incubated for another 30 minutes at room temperature. Serial dilutions of the bacterial culture were plated on LB plates containing 40 μg/ml tetracycline. Plates were incubated at 37° C. overnight before the colonies were counted (transducing units, TU).

The test system of series [1] is C8161 human melanoma cells. As to conditions: cells and peptide mixture cultured overnight; data not shown.
The next series relates to rat lung blood vessels. As to the kind of experiment: targeting of rat lung blood vessels by injected phage. The series is classed as in vivo. The note with it: phage injected in the circulation.

Turning to CGFECVRQCPERC [lung homing peptide], in the series with murine MDP (5×10^6 COS-1 cells, 10^10 TU phage), the “phage bound to MDP transfected cells than to mock transfected cells” value stood at 4 fold. The “inhibition of binding of GFE-1 and GFE-2 phage to MDP-transfected cells” value with murine MDP (data not shown) was “completely inhibited”. Besides, in the series on lung primary cells (150 μM peptide), the “inhibition of GFE-1 phage binding to lung cells” value is recorded as roughly 70%. Further, in the series on lung primary cells (10^9 TU phage, 5×10^6 cells, 4° C., 2 hours), the “phage bound by primary lung cells relative to insertless fd-tet phage” value was “about 60 fold”. Further, in series [1], the “toxicity to the melanoma cells” value is “Neither the GFE-1 (SEQ ID NO: 1) or CARAC (SEQ ID NO: 443) peptides exhibited toxicity”. For the same sequence, the “targeting of rat lung blood vessels” value in the series with rat lung blood vessels is reported as “selectively target rat lung blood vessels”.

The values are drawn from patent US6784153B1, “Methods of homing molecules to lung using membrane dipeptidase” (The Burnham Institute, priority 1998, dated 2004).
